Test results published in article PMC6838055, “Effective genome editing and identification of a regiospecific gallic acid 4-O-glycosyltransferase in pomegranate (Punica granatum L.)” (Horticulture Research, 2019).

Substrate: O=C(O)c1cc(O)c(O)c(O)c1
Test: HPLC product assay, steady-state kinetics
Assay type: biochemical, Punica granatum
Conditions: UDP-glucose co-substrate (0.6 mM in standard assay), 50 mM MES pH 5.5, 3 mM 2-mercaptoethanol, 30 °C, gallic acid 30-500 μM

B1: PgUGT72BD1 (Punica granatum) (protein)
chain: MAQVSTKPHVALFASPGIGHLIPVLQLGERFVSRHNFVVTVFVVVTDAATAESQLKQQSSYKNLLNVVLLPPVDLTSLTNKPLAILSQLVLIVRQSLPDLRSAIASMKSRPTALIVDLFGTEAFAIADEFHMLKYEFFTTNAWFLALTLYAPHVDREHEDDHILRHMPLHIPGCASILYEDTVDVYTDRNDKLLHDDYVRIGRRLAEADGILINTWESLEPKTLQALRDPKAFGRFSQVRILPIGPLVSGFQSFGSSQPKDDILQWLDDQPTESVLYVSFGSGGTLSADQLTELAWGLEQSQHRFIWVVRPPQENSACGAYFEQAKRADGTPEYLPDGFVTRTQKLGLVVPMWAPQREILAHPSIGGFLSHCGWNSTLESLINGVPLIAWPLYAEQTMNATMLTDQLGIAARSRELMPNGVLGRHEIEKMVRTVMNKEDAKGETIRARSQDLKRTALLAVAEGGSSYAALSQVAQECKIGLVGLKQRARGA
notes: codon-optimized ORF in pET28a, His-tagged, E. coli BL21(DE3), Ni-NTA purified; no signal peptide detected
For B1, the Km was 190 ± 70 µM and the kcat was “(2.83 ± 0.5) × 10^−3 s^−1”.
